Data as given in patent US20060240053.

Substance | autocleavage in acetate buffer pH 4.5, SDS-PAGE over time
GST-SASPase C27 mutant A/D (aspartic acid No. 212 substituted to alanine) | The mutated forms (A/D) and (E/D), for their part, do not autoactivate
GST-SASPase C27 mutant E/D (aspartic acid No. 212 substituted to glutamic acid) | The mutated forms (A/D) and (E/D), for their part, do not autoactivate
